The data set relates to ATP. The data set is described as follows: switch fluorescence ratio, 500 uM ATP over buffer (Cy3 cluster intensity, sum of 5 cycles each) (fold (ratio)); higher = stronger signal-on switching upon ATP binding; sequences stand for … in TCGTCGGCAGCGTCAGATGTGTATAAGAGACAGTTTTTTTTTTTTTTTTTTTTTTTTT…TC. The note with it: aptamer strand: ATP DNA aptamer (quencher-CACCTGGGGGAGTATTGCGGAGGAAGG + anchor), 100 nM annealed; ATP concentration: 500 uM. In outline:
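Clusters with intensities outside 100-1000 RFU were excluded. The remaining Cy3-labelled switching-strand clusters on a modified Illumina MiSeq flow-cell had been annealed to 100 nM quencher-labelled ATP aptamer and imaged in selection buffer, then after 15 min with 500 uM ATP at 22 °C, for five cycles separated by NaOH stripping and re-annealing. The fluorescence ratio, averaged per switch-domain sequence, is each cluster's summed target-cycle Cy3 intensity over its summed buffer-cycle Cy3 intensity.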

± gives the standard deviation of the averaged measurements.
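Note: ATP exposure 15 min at 22 °C before imaging.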

Take TCATCATTCG: the switch fluorescence ratio is 0.9668 ± 0.0052.

In the case of CAAAAGGAGT, the switch fluorescence ratio stood at 0.992 ± 0.034.

For AGAGGAAAAC, the switch fluorescence ratio is 1.08 ± 0.023. The figure for GATGGGGGCG is 1.03 ± 0.093; for TAGGATATGG it is 1 ± 0.017. Take AAATTCGATT: the switch fluorescence ratio was determined as 1.032 ± 0.0037. Take GCTTTCATAT: the switch fluorescence ratio is 0.9996 ± 0.0099.

In the case of GCAGGGGACG, the switch fluorescence ratio is 1.05 ± 0.015. The figure for GAGTTTTTTC is 0.993 ± 0.018; for TCGACGCGCC it is 5.12 ± 0.52; for TAATGTTTGT it is 0.986 ± 0.048. Take CTGAGGGGCC: the switch fluorescence ratio amounted to 0.951 ± 0.071.

GGGTTGAAGA: the switch fluorescence ratio worked out at 0.971 ± 0.04.

On to AAGTTATATG, for which the switch fluorescence ratio came out at 0.987 ± 0.0099. The same measure for GGGGACGAGT: 0.99779 ± 0.00098; for CGGGTTACGG: 0.9728 ± 0.0055. The figure for CTGTGGACCG is 0.974 ± 0.017. Take GCTTGCTATG: the switch fluorescence ratio worked out at 0.976 ± 0.014.

As to GTGTGATGTG, the switch fluorescence ratio was determined as 0.9681 ± 0.0051. As to TGTAATCGTT, the switch fluorescence ratio came to 0.964 ± 0.07. The figure for GTGACAAAAA is 1.027 ± 0.0026; for CTATTTCCTT it is 0.975 ± 0.031. The figure for GAGCTAGGGT is 0.9905 ± 0.006; for GAAGTATTGT it is 0.9951 ± 0.0062; for CGAGGTACGT it is 0.9867 ± 0.0046. The same measure for CCGAGGGTG: 1.81 ± 0.098; for GAGGGGGGCT: 1.023 ± 0.006; for GGATGAATGG: 1.03 ± 0.043.

For ACCAGGGAAA, the switch fluorescence ratio turned out to be 1.01 ± 0.014. On to TGGTGTGGTT, for which the switch fluorescence ratio was 1.02 ± 0.021. The same measure for GCTAGTTGGT: 0.99 ± 0.017. The figure for AATTAGTGTT is 0.99 ± 0.02.

Consider GATCGGGAGG, for which the switch fluorescence ratio is 0.9844 ± 0.0089. The figure for TTTTTAGATC is 1.004 ± 0.0088. The figure for ATAGGTTACG is 1.21 ± 0.25. The same measure for GGGATTGGTT: 0.999 ± 0.047. For AAGACTTAT, the switch fluorescence ratio is 1.01 ± 0.053. The figure for CAGTTCGGAA is 1.07 ± 0.027; for AGAGGAGCGG it is 1.02 ± 0.013; for GGGCACTTTG it is 1.0204 ± 0.00091. The figure for CTTGCCTGGG is 0.96 ± 0.028; for AATTTATCAG it is 1.03 ± 0.039. The figure for GGCAGGTTTT is 0.996 ± 0.035; for TTTGTTTAGA it is 0.9917 ± 0.0069. Regarding GTGATAAAAT, the switch fluorescence ratio was 1.01 ± 0.031. TTCCTTGGTG: the switch fluorescence ratio amounted to 1.94 ± 0.89. The figure for CTATTTCATA is 0.992 ± 0.018; for TCGGGGCGAA it is 1.85 ± 1.3; for ATTGGGGCCG it is 1.01 ± 0.016.

Consider GCTCGTTTAG, for which the switch fluorescence ratio is 1.01 ± 0.02. The figure for GGGAGGGATA is 0.995 ± 0.02; for TTGGGGACGT it is 1.01 ± 0.042. Regarding GATTAAGAAT, the switch fluorescence ratio amounted to 1 ± 0.027.

On to GGGGAGAGCG, for which the switch fluorescence ratio stood at 1.01 ± 0.034. The same measure for ATGGAGTGG: 1 ± 0.049; for CGATATACTG: 1.09 ± 0.074. The same measure for ATTTGGTATT: 0.992 ± 0.041. Turning to AAGGTGGAAG, the switch fluorescence ratio amounted to 1.003 ± 0.0046.

For the sequence GCTATCAGCG, the switch fluorescence ratio turned out to be 0.995 ± 0.023.

As to CGATACCTTT, the switch fluorescence ratio turned out to be 1.003 ± 0.0086. The figure for CTTGTGGGGT is 0.978 ± 0.021; for TTAAGAACG it is 1.002 ± 0.0087; for ATGCGGTAGG it is 1.01 ± 0.016. CGGGGTGCGT: the switch fluorescence ratio was 1.02 ± 0.037. Consider GAGTTAGTGC, for which the switch fluorescence ratio turned out to be 0.982 ± 0.039. AAGGATAGTT: the switch fluorescence ratio amounted to 1.01 ± 0.013. The figure for TTTAGCTTAA is 0.986 ± 0.021; for CGAAATTGTG it is 1.02 ± 0.022; for CGGGACCCCC it is 1.141 ± 0.011. Take ATAGGTGTGG: the switch fluorescence ratio turned out to be 1.02 ± 0.035. Regarding CAATGATGGG, the switch fluorescence ratio is 1.0072 ± 0.00052. In the case of TGGGCATTGG, the switch fluorescence ratio was 1.01 ± 0.018. The same measure for CTGATGTGTC: 0.996 ± 0.055; for TATTTGGGAT: 1 ± 0.002. Turning to TAATGCTGTG, the switch fluorescence ratio was determined as 0.984 ± 0.036. Turning to TCGAGTTTGT, the switch fluorescence ratio was found to be 1.01 ± 0.022.

CATGTCGACT: the switch fluorescence ratio turned out to be 0.988 ± 0.046. The figure for CATAAGGGTT is 1.13 ± 0.17.

The values above are taken from the supplement of paper PMC10126150.
